Results: patent publication US20110165066A1 (AbbVie / Abbott, published 2011)
Values joined by “and” are separate entries in the source; they are usually repeats but may differ in a detail not shown here. Equal entries are not always repeated.

How the values were obtained:
mouse IL-13 [1] = biological target: T1, mouse IL-13 (mouse, UniProt P20109 26-131, limits assumed); experiment: indirect ELISA, captured mAb, biotinylated mouse IL-13
T1 construct: also called mIL-13; murine IL-13
T1 sequence (looked up): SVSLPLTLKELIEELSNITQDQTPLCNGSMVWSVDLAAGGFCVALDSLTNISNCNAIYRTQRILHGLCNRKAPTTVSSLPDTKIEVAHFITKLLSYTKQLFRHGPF

human IL-13 wild type [2] = biological target: T2, human IL-13 wild type (human, UniProt P35225 35-146); experiment: blocking of IL-13 binding to IL-13Rα2, receptor binding assays
T2 construct: also called h IL-13; h IL-13 wt

[3] = biological target: T3, human IL-13 variant (R130Q) (human, UniProt P35225 35-146); experiment: cell-based or functional assay
cynomolgus IL-13 = cynomolgus IL-13 (cynomolgus, UniProt Q0PW92 21-132); experiment: cell-based or functional assay
human IL-13 wild type [4] = biological target: T2, human IL-13 wild type; experiment: cell-based or functional assay
[5] = biological target: T3, human IL-13 variant (R130Q); experiment: SPR (Biacore), mAb captured, IL-13 as analyte
human IL-13 wild type [6] = biological target: T2, human IL-13 wild type; experiment: SPR (Biacore), mAb captured, IL-13 as analyte
[7] = biological target: T3, human IL-13 variant (R130Q); experiment: cell-based or functional assay; remark: listed apart in the source
human IL-13 wild type [8] = biological target: T2, human IL-13 wild type; experiment: cell-based or functional assay; remark: listed apart in the source
human IL-13 wild type [9] = biological target: T2, human IL-13 wild type; experiment: receptor binding assays (cell surface-based on IL-13Rα2-transfected COS cells and ELISA-based with IL-13Rα2/Fc), 13C5.5 blocking human IL-13 binding to human IL-13Rα2; range told over both assays
[10] = biological target: T3, human IL-13 variant (R130Q); experiment: SPR (Biacore)
human IL-13 wild type [11] = biological target: T2, human IL-13 wild type; experiment: SPR (Biacore)
human IL-13 wild type [12] = biological target: T2, human IL-13 wild type; experiment: cell surface-based receptor binding assay, blocking 125I-IL-13 binding to IL-13Rα2-transfected COS cells
Description: Recombinant human IL-13 was labeled with ¹²⁵I (Amersham, Arlington Heights, Ill.), using IODO-GEN reagent (Pierce, Rockford, Ill.) as previously described (Obiri N I et al., (1995) J Biol Chem. 270:8797-8804). […] Transfected COS cells (5×10^5 cells in 100 μL binding buffer: RPMI 1640 containing 0.2% human serum albumin and 10 mmol HEPES) were incubated with 1.0 nM ¹²⁵I-IL-13 with or without 1 uM unlabeled IL-13 at 4° C. for 2 hours. Cell-bound ¹²⁵I-IL-13 was separated from unbound ¹²⁵I-IL-13 by centrifugation through a phthalate oil gradient, and radioactivity was determined with a gamma counter (Wallac, Gaithersburg, Md.).

human IL-13 wild type [13] = biological target: T2, human IL-13 wild type; experiment: SPR (Biacore); remark: listed apart in the source
Description: (§1) The BIACORE assay (Biacore, Inc, Piscataway, N.J.) determines the affinity of antibodies with kinetic measurements of on-, off-rate constants. […] All chemicals were obtained from Biacore® AB (Uppsala, Sweden) or otherwise from a different source as described in the text. Approximately 5000 RU of goat anti-mouse IgG, (Fcγ), fragment specific polyclonal antibody (Pierce Biotechnology Inc, Rockford, Ill.) diluted in 10 mM sodium acetate (pH 4.5) was directly immobilized across a CM5 research grade biosensor chip using a standard amine coupling kit according to manufacturer's instructions and procedures at 25 μg/ml. Unreacted moieties on the biosensor surface were blocked with ethanolamine. Modified carboxymethyl dextran surface in flowcell 2 and 4 was used as a reaction surface. Unmodified carboxymethyl dextran without goat anti-mouse IgG in flow cell 1 and 3 was used as the reference surface. For kinetic analysis, rate equations derived from the 1:1 Langmuir binding model were fitted simultaneously to association and dissociation phases of all eight injections (using global fit analysis) with the use of Biaevaluation 4.0.1 software. Purified antibodies were diluted in HEPES-buffered saline for capture across goat anti-mouse IgG specific reaction surfaces. Mouse antibodies to be captured as a ligand (25 μg/ml) were injected over reaction matrices at a flow rate of 5 μl/min. The association and dissociation rate constants, kₒₙ (unit M⁻¹s⁻¹) and koff (unit s⁻¹) were determined under a continuous flow rate of 25 μl/min Rate constants were derived by making kinetic binding measurements at ten different antigen concentrations ranging from 10-200 nM. […] Binding is recorded as a function of time and kinetic rate constants are calculated.

human IL-13 wild type [14] = biological target: T2, human IL-13 wild type; experiment: ELISA-based receptor binding assay, blocking biotin-IL-13 binding to IL-13Rα2/Fc
Description: After 16 hr, coating solution was removed by flicking plate contents in sink, and plates were washed and blocked 4 times with Superblock Blocking Buffer (240 ul/well) (Pierce). […] Plates were washed 5 times with 300 ul 0.1% PBST, and then 100 ul of 1:5000 diluted mouse anti-Biotin MAb (Jackson Immunosciences) was added and incubated at RT for 45 min. The plates were washed again 5 times with 300 ul 0.1% PBST, followed by addition of TMB substrate reagent (100 ul/well, Pharmingen); developed for 5 min, and stopped by adding 50 ul of 2M H2SO4 (VWR). ODs at 450 nm were determined by spectrophotometry.

mouse IL-13 [15] = biological target: T1, mouse IL-13; experiment: SPR (Biacore)
mouse IL-13 [16] = biological target: T1, mouse IL-13; experiment: BIACORE against recombinant mouse IL-13
mouse IL-13 [17] = biological target: T1, mouse IL-13; experiment: cell-based or functional assay
[18] = biological target: T3, human IL-13 variant (R130Q); experiment: SPR (Biacore), mAb captured, IL-13 as analyte; row shifted, read as variant IL-13 columns
Description: as §1

T2 sequence (P35225 other isoform, or with tags, fused parts or gaps limits assumed): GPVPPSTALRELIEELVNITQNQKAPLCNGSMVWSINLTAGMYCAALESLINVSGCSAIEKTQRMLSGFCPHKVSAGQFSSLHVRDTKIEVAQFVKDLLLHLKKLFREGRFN
T3 sequence (P35225 35-146 limits assumed, stated change not applied): as the sequence (P35225 other isoform, or with tags, fused parts or gaps limits assumed) above, with R110Q counted along it
cynomolgus IL-13, sequence (Q0PW92 entry or part of it): as the sequence (P35225 other isoform, or with tags, fused parts or gaps limits assumed) above, with G1S, R10K, M42V, S67N, H83R, L100V, R110Q counted along it

B1: 9C11 (antibody, V domains shown)
VH: QVRLQQPGAELVRPGASVKLSCKASGYTFTSSWIHWVNQRPGQGLEWIGMIHPSDSETRLNQKFKDKATLTVDKSSSTAYMQLSSPTSEDSAVYYCASTATDFDYWGQGTTLTVSS
VL: DVVLTQTPLSLPVNIGDQASISCRSTQTLLNSDGFTYLDWYLQKPGQSPQLLIYLVSNRFSGVPDRFSGSGSGTDFTLKISRVEAEDLGVYYCFQNNYLPLTFGAGTKLELKR
Mouse IL-13 [1]
  binding result: no binding (tested: 0.1 to 100 ng/ml)
Human IL-13 wild type [2]
  IC50: > 10 nM
[3]
  Average IC50, IL-13-induced TARC production by A-549 cells: 0.17 nM
Cynomolgus IL-13
  Average IC50, IL-13-induced TARC production by A-549 cells: 0.64 nM
Human IL-13 wild type [4]
  Average IC50, IL-13-induced TARC production by A-549 cells: 0.106 nM
[5]
  Kd: 0.0921 nM
  koff: 5.86e-05 s⁻¹
  kon: 637000 M⁻¹ s⁻¹
Human IL-13 wild type [6]
  Kd: 0.112 nM
  koff: 6.5e-05 s⁻¹
  kon: 579000 M⁻¹ s⁻¹

B2: 13C5.5 (antibody, human IgG1, V domains shown)
VH: EVTLRESGPGLVKPTQTLTLTCTLYGFSLSTSDMGVDWIRQPPGKGLEWLAHIWWDDVKRYNPALKSRLTISKDTSKNQVVLKLTSVDPVDTATYYCARTVSSGYIYYAMDYWGQGTLVTVSS
VL: DIQMTQSPSSLSASVGDRVTISCRASQDIRNYLNWYQQKPGKAPKLLIFYTSKLHSGVPSRFSGSGSGTDYTLTISSLQPEDIATYYCQQGNTLPLTFGGGTKVEIK
notes: Humanized; The light chain row is printed 'VL 1305.5'; also called humanized 13C5; recombinant humanized antibody 13C5.5
[7]
  Potency (IC50), A-549 bioassay: 0.069 nM
Human IL-13 wild type [8]
  Potency (IC50), A-549 bioassay: 0.124 nM
Human IL-13 wild type [9]
  IC50: ≥ 1 nM and ≤ 3 nM
[10]
  Kd: 0.05 nM
Human IL-13 wild type [11]
  Kd: 0.07 nM
Human IL-13 wild type [12]
  IC50: 2.7 nM
Human IL-13 wild type [13]
  Kd: 0.0701 nM
  koff: 0.000176 s⁻¹
  kon: 2.51e+06 M⁻¹ s⁻¹
Human IL-13 wild type [14]
  IC50: 1.1 nM

B3: 3H7 (antibody, mouse IgG1, V domains shown)
VH: EVQLVESGGGLVKPGGSLKLSCAASGFTFSTYAMSWVRQTPEKRLEWVAGISSGGSYTYYPETMKGRFTISRDNARNTLYLQMSSLRSEDTAIYYCTRGSWGQGTSVTVSS
VL: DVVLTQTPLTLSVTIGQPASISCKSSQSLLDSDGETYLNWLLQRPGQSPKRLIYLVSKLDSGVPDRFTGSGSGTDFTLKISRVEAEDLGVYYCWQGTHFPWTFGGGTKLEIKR
notes: Murine monoclonal; also called mAb 3H7
Mouse IL-13 [15]
  Kd: 12 nM
[3]
  Average IC50, IL-13-induced TARC production by A-549 cells: 0.58 nM
Cynomolgus IL-13
  Average IC50, IL-13-induced TARC production by A-549 cells: 0.797 nM
Mouse IL-13 [16]
  Kd: 11.2 nM
Mouse IL-13 [17]
  IC50, A-549 bioassay against recombinant mouse IL-13: 2.43 nM
[18]
  Kd: 0.22 nM
  koff: 5.58e-05 s⁻¹
  kon: 254000 M⁻¹ s⁻¹
Human IL-13 wild type [6]
  binding result: no binding
